Drawing on doi:10.1101/2022.02.25.482063, this text covers fold reduction of the on-rate (ka) against WT for 1 substance.

A value given as a limit tells only on which side of the number the result lay.

The assay has as its target motavizumab. The assay is described as follows: SPR. For orientation: Surface plasmon resonance follows binding to a sensor surface in real time, without labels.

On to “RSV F glycoprotein S275H, on virions of recombinant RSV-A2 mKate2 (natural protein)”, for which the fold reduction of the on-rate (ka) against WT is greater than 6 fold.
